Values of other authors, collected in paper PMC2939181.

Molecular target: CPT-1 (UniProt P50416)
Assay: FRET

Chain of UniProt P50416 (P50416 2-773): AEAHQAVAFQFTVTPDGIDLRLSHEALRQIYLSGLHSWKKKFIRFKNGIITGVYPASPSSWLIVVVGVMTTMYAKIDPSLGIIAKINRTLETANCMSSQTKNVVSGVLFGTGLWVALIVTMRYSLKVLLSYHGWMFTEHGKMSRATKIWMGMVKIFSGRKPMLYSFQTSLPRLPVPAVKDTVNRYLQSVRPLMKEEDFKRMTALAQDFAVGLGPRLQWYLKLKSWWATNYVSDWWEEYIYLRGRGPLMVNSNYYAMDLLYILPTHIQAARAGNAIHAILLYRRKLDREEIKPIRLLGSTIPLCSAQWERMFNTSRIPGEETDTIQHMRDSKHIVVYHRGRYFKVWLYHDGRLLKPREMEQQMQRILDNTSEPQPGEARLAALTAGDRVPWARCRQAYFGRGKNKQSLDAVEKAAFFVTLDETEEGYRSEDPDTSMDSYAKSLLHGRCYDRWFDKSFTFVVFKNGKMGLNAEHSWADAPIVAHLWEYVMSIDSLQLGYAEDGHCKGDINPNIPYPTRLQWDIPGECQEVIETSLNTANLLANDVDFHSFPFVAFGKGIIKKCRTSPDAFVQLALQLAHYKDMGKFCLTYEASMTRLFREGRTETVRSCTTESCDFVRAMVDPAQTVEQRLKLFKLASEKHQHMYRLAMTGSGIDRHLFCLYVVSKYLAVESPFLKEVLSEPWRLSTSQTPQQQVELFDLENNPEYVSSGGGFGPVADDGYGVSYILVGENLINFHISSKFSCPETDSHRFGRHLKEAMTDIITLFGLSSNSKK

Kd: 2.1 nM
Substance: L-FABP (from UniProt P07148)
